The subject of the data set is NupR (NagR2) (Bacillus thuringiensis BMB171), ORF:032de0b7. The experiment in a line: EMSA. As to conditions: NupR: 10 mM Tris-HCl pH 7.5, 50 mM NaCl, 0.5 mM DTT, 4% glycerol, 200 ng poly(dI-dC), 25 C 30 min, ComK/CcpA/PurR: 10 mM Tris-HCl pH 8.0, 50 mM KCl. On the technique in general: In EMSA bound probe runs differently from free probe, usually more slowly.
Regarding “CGCATTTCAATTATTCGACCTCTGATGTAAGACTTCTTTTCTCTTTTTTCAACTTACAACATAGTACAAATGACTAAACACCAAAATAAGTGTAATTGTCGAATAAATAATAATAATTTTTTAAAATAAAATTTTCACTCTTTATTGCATAAAAAAAACTTTGCACCATAAACATTCCTCATTTCGAGAAAAAGTTCGGCACAAAGATCCTTTACATCCTTTGTTACACACTTTTCCCCTCATAGTCTAGCAATTCATGGTTGCC (double strand) [nagR2 (nupR) promoter]”, the binding result is recorded as “binds”.
As to “CTAATACAACACGGTTAATACCTTTTTTCATTTCAAAATTCCTCGCAATTTCATTGATTTTATTATGTAAGATAATACGTCTTACTTCTATAGAGTCATATCTAGTTTATTACATTTTATAAAAGATATTCAAGTATTTGAAAATGTATCCGTGCAAATCCGCGAACAAAACATAGGAATTCAGTGAACCGAATATAATTCAGTAAAATCCTTTGTAAAAGGGGAAATGGCATGG (double strand) [ldh promoter]”, the binding result is listed as “binds”.
As to “GGTGAAATAGTATGGTCATCACGTAATAAAGTATCATCTAAATCTAAAACAATCATTTTATAAGTCATATAGAAAATTCCTTTCTTTAATTGAAATCAAAATACATGTTCATGAAGATGTTGAGGAATAATAGTAAGACATCAAACCTCTTTGAAAAGAAGTAGATAAATTATTATGAGTTGTTGCTCATAATATTGGTTAATAATCATTGGGGAAGAATAAAACCCCAATGATTAAAGTTTGATTTTATCGTAACAACTCTAAAGGTAGAGTGCAATAATGGAAGTT (double strand) [had promoter]”, the binding result is listed as “binds”.
With “TGCATACTTACTCACCATCCCATTAGAACAATCTAATTTTTTGAGTTGTCATACCACTACAATAATGTGAATTCGACAATTTTTGATATGAAATAATGCATAATATATATAAAATTCGGCAAATTTTTCATACAATTCATCTCACATACAATAATAGATTAGGAGTGTTATAGATGAATTATAG (double strand) [baci promoter]”, the binding entry is “binds”.

The values above are taken from publication PMC9430930.
